# Test results reported in US20140186823.
# Key:
# [1] = target: MspA NNN-RRK pore MS-(B1)8 (Mycobacterium smegmatis) (UniProt A0QR29); details: four 5' 2'-O-methyl-uracil on SEQ 19; 3' Cholesteryl-TEG on SEQ 20; mean S.D. of current levels; helicase translocation, +140 mV; unit assumed
# [2] = target: MS-(B1-L88N)8 L88N (Mycobacterium smegmatis) (UniProt A0QR29); details: four 5' 2'-O-methyl-uracil on SEQ 19; 3' Cholesteryl-TEG on SEQ 20; mean S.D. of current levels; helicase translocation, +140 mV; unit assumed
sequence,measurement,setting,value
NNNNTTTTTTTTTTTTTTTTTTTTTTTTTTTTTTTTTTTTTTTTTTTTTTTTTTGGTTGTTTCTGTTGGTGCTGATATTGCTTTTGATGCCGACCCTAAATTTTTTGCCTGTTTGGTTCGCTTTGAGTCTTCTTCGGTTCCGACTACCCTCCCGACTGCCTATGATGTTTATCCTTTGAATGGTCGCCATGATGGTGGTTATTATACCGTCAAGGACTGTGTGACTATTGACGTCCTTCCCCGTACGCCGGGCAATAACGTTTATGTTGGTTTCATGGTTTGGTCTAACTTTACCGCTACTAAATGCCGCGGATTGGTTTCGCTGAATCAGGTTATTAAAGAGATTATTTGTCTCCAGCCACTTAAGTGAGGTGATTTATGTTTGGTGCTATTGCTGGCGGTATTGCTTCTGCTCTTGCTGGTGGCGCCATGTCTAAATTGTTTGGAGGCGGTC / GCAATATCAGCACCAACAGAAACAACCTTTTTTTTTTTTTTTTTTTTTTTTTTTTTT,activity,[1],2.3 pA
same,activity,[2],1.79 pA
